Test results: publication PMC2911661

Target: SH2 domain of SHC1 (human) (UniProt P29353)
Assay: peptide or protein array

Sequence of UniProt P29353 (P29353 488-579): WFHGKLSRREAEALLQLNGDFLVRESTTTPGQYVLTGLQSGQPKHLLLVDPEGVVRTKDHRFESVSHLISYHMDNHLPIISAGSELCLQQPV

singly phosphorylated Tarp D peptide (18 amino acids around the ENIYE motif)
Kd: < 200 nM
